The text below walks through data of patent publication US20250236682A1 (CENTENAIRE BIOSCIENCES, published 2025).

Test [1] deals with T1, neonatal Fc receptor (FcRn) (Homo sapiens (Human), UniProt P55899 24-297; P61769 21-119).
T1 construct: analyte in solution at pH 6.0; copies: 1 + 1
Kind of test: BLI, antibody on FAB2G sensor, FcRn analyte, pH 6.0.

Test [2] has as its target T2, human HER2 recombinant protein (R&D systems, 1129-ER) (human, UniProt P04626 23-652).
T2 construct: extracellular domain; also called HER2 antigen; HER2 extracellular domain (ECD)
The experiment in a line: BLI, HER2 on HIS1K sensor. In general terms: Biolayer interferometry detects binding as a change in optical thickness at a sensor tip.

The target in test [3] is T3, human FcγRIIIA (176V isoform, R&D systems, 4325-FC) (human, UniProt P08637 17-208).
T3 construct: bought; also called FcγRIIIA(CD16A, 176V); Fcγ receptor 3A (176V isoform)
Kind of test: BLI, His-FcγRIIIA on HIS1K sensor.

The target of test [4] is T4, human FcγRI (R&D systems, 1257-FC) (human, UniProt P12314 16-288).
T4 construct: bought; also called FcγRI(CD64); Fcγ receptor 1
Kind of test: BLI, His-FcγRI on HIS1K sensor.

Test [5] deals with T2, human HER2 recombinant protein (R&D …). The experiment in a line: BLI, HER2 on HIS1K sensor, 1 to 32 nM antibody.

T1 sequence (P55899 24-297 limits assumed, form in doubt, chain 1 of 2): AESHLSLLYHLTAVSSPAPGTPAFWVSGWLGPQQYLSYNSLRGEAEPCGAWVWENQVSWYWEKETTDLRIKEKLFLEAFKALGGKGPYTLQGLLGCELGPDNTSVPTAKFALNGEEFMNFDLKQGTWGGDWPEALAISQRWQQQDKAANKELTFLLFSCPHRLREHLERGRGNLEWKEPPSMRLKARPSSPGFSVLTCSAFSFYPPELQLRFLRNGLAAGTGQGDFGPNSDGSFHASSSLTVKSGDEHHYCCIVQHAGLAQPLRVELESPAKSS
T1 sequence (P61769 21-119 limits assumed, form in doubt, chain 2 of 2): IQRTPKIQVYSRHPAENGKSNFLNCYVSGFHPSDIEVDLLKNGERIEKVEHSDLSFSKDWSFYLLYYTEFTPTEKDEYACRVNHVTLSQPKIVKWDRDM
T3 sequence (P08637 17-208 F176V limits assumed): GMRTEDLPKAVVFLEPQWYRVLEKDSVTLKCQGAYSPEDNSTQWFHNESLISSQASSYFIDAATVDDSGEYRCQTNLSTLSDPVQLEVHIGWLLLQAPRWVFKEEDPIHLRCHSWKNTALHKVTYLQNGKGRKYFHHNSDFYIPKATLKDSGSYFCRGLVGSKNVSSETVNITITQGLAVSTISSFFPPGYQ
T4 sequence (P12314 16-288 limits assumed): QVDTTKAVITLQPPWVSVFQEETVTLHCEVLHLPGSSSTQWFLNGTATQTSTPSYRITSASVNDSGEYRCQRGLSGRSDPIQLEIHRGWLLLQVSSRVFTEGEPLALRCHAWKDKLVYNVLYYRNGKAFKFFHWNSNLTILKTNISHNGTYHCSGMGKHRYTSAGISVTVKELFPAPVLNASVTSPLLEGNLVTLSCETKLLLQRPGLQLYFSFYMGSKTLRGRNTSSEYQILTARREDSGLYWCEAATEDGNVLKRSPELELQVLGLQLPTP

B1: pertuzumab (antibody, V domains shown)
VH: EVQLVESGGGLVQPGGSLRLSCAASGFTFTDYTMDWVRQAPGKGLEWVADVNPNSGGSIYNQRFKGRFTLSVDRSKNTLYLQMNSLRAEDTAVYYCARNLGPSFYFDYWGQGTLVTVSS
VL: DIQMTQSPSSLSASVGDRVTITCKASQDVSIGVAWYQQKPGKAPKLLIYSASYRYTGVPSRFSGSGSGTDFTLTISSLQPEDFATYYCQQYYIYPYTFGQGTKVEIK
By Kd is commonly meant the equilibrium constant for the complex coming apart. By koff is commonly meant the first-order rate constant of dissociation. Usually kon stands for the rate constant with which the complex forms. In test [1], B1 had a Kd of 322 nM, a koff of 0.0154 s⁻¹ and a kon of 47900 M⁻¹ s⁻¹.

B2: H01Fv1 (antibody, human IgG1)
heavy: not shown
light: not shown
chain: DKTHTCPPCPAPELLGGPSVFLFPPKPKDTLMISRTPEVTCVVVDVSHEDPEVKFNWYVDGVEVHNAKTKPREEQYNSTYRVVSVLTVLHQDWLNGKEYKCKVSNKALPAPIEKTISKAKGQPREPQVCTLPPSREEMTKNQVSLSCAVKGFYPSDIAVEWESNGQPENNYKTTPPVLDSDGSFFLVSKLTVDKSRWQQGNVFSCSVMHEALHNRFTQKSLSLSPGK
notes: also called Fv-(Fc)2, VH G44C / VL Q100C
For the molecule B2, in test [2], the Kd came to 0.244 nM, the koff was found to be 5.11e-05 s⁻¹ and the kon came to 210000 M⁻¹ s⁻¹.

B3: H01Fv7 (antibody, human IgG1, kappa)
heavy: not shown
light: not shown
chain: DKTHTCPPCPAPELLGGPSVFLFPPKPKDTLMISRTPEVTCVVVDVSHEDPEVKFNWYVDGVEVHNAKTKPREEQYNSTYRVVSVLTVLHQDWLNGKEYKCKVSNKALPAPIEKTISKAKGQPREPQVCTLPPSREEMTKNQVSLSCAVKGFYPSDIAVEWESNGQPENNYKTTPPVLDSDGSFFLVSKLTVDKSRWQQGNVFSCSVMHEALHNRFTQKSLSLSPGK
notes: also called Fv-(Fc)2, VH G44C, Q105C, F126C / VL Q100C, A43C, S121C
With B3, in test [2], the Kd amounted to 0.279 nM, the koff is 7.7e-05 s⁻¹ and the association rate constant (kon) worked out at 276000 M⁻¹ s⁻¹.

B4: H01Fv4 (antibody, human IgG1)
heavy: not shown
light: not shown
chain: DKTHTCPPCPAPELLGGPSVFLFPPKPKDTLMISRTPEVTCVVVDVSHEDPEVKFNWYVDGVEVHNAKTKPREEQYNSTYRVVSVLTVLHQDWLNGKEYKCKVSNKALPAPIEKTISKAKGQPREPQVCTLPPSREEMTKNQVSLSCAVKGFYPSDIAVEWESNGQPENNYKTTPPVLDSDGSFFLVSKLTVDKSRWQQGNVFSCSVMHEALHNRFTQKSLSLSPGK
notes: also called Fv-(Fc)2, VH G44C, Q105C / VL Q100C, A43C
For B4, in test [2], the Kd was 0.326 nM, the off-rate (koff) was 7.71e-05 s⁻¹ and the kon was found to be 237000 M⁻¹ s⁻¹.

B5: H01Fv5 (antibody, human IgG1, kappa)
heavy: not shown
light: not shown
chain: DKTHTCPPCPAPELLGGPSVFLFPPKPKDTLMISRTPEVTCVVVDVSHEDPEVKFNWYVDGVEVHNAKTKPREEQYNSTYRVVSVLTVLHQDWLNGKEYKCKVSNKALPAPIEKTISKAKGQPREPQVCTLPPSREEMTKNQVSLSCAVKGFYPSDIAVEWESNGQPENNYKTTPPVLDSDGSFFLVSKLTVDKSRWQQGNVFSCSVMHEALHNRFTQKSLSLSPGK
notes: also called Fv-(Fc)2, VH G44C, F122C / VL Q100C, S121C
Consider B5, for which, in test [2], the Kd worked out at 0.393 nM, the koff is 0.000107 s⁻¹ and the kon was determined as 273000 M⁻¹ s⁻¹.

B6: P01DE4 (antibody, human IgG1, kappa)
heavy: not shown
light: not shown
chain: DKTHTCPPCPAPELLGGPDVFLFPPKPKDTLMISRTPEVTCVVVDVSHEDPEVKFNWYVDGVEVHNAKTKPREEQYNSTYRVVSVLTVLHQDWLNGKEYKCKVSNKALPAPEEKTISKAKGQPREPQVCTLPPSREEMTKNQVSLSCAVKGFYPSDIAVEWESNGQPENNYKTTPPVLDSDGSFFLVSKLTVDKSRWQQGNVFSCSVMHEALHNHYTQKSLSLSPGK
notes: monovalent Fab-(Fc)2; also called P01 with S239D and I332E in all Fc chains
Turning to B6, the Kd is 0.33 nM in test [3], 0.038 nM in test [4] and 0.224 nM in test [5]. Moreover, the figures for the koff in test [3], in test [4] and in test [5] were 0.000159 s⁻¹, 2.85e-05 s⁻¹ and 5.51e-05 s⁻¹, respectively. The kon in test [3] came to 478000 M⁻¹ s⁻¹; in test [4], 748000 M⁻¹ s⁻¹; in test [5], 246000 M⁻¹ s⁻¹.

B7: H01Fv2 (antibody, human IgG1)
heavy: not shown
light: not shown
chain: DKTHTCPPCPAPELLGGPSVFLFPPKPKDTLMISRTPEVTCVVVDVSHEDPEVKFNWYVDGVEVHNAKTKPREEQYNSTYRVVSVLTVLHQDWLNGKEYKCKVSNKALPAPIEKTISKAKGQPREPQVCTLPPSREEMTKNQVSLSCAVKGFYPSDIAVEWESNGQPENNYKTTPPVLDSDGSFFLVSKLTVDKSRWQQGNVFSCSVMHEALHNRFTQKSLSLSPGK
notes: also called Fv-(Fc)2, VH Q105C / VL A43C
B7: in test [2], the Kd came out at 0.324 nM, the off-rate constant (koff) stood at 3.78e-05 s⁻¹ and the kon worked out at 117000 M⁻¹ s⁻¹.

B8: H01DE4 (antibody, human IgG1, kappa)
heavy: not shown
light: not shown
chain: DKTHTCPPCPAPELLGGPDVFLFPPKPKDTLMISRTPEVTCVVVDVSHEDPEVKFNWYVDGVEVHNAKTKPREEQYNSTYRVVSVLTVLHQDWLNGKEYKCKVSNKALPAPEEKTISKAKGQPREPQVCTLPPSREEMTKNQVSLSCAVKGFYPSDIAVEWESNGQPENNYKTTPPVLDSDGSFFLVSKLTVDKSRWQQGNVFSCSVMHEALHNHYTQKSLSLSPGK
notes: monovalent Fab-(Fc)2; also called H01 with S239D and I332E in all Fc chains
In test [3], B8 returned a Kd of 0.1 nM, a koff of 5.51e-05 s⁻¹ and a kon of 526000 M⁻¹ s⁻¹. In addition, in test [4], binding was put at a Kd of 0.036 nM, the dissociation rate constant (koff) was found to be 3.06e-05 s⁻¹ and the kon is 852000 M⁻¹ s⁻¹. Further, in test [5], the Kd was determined as 0.145 nM, the koff was 3.73e-05 s⁻¹ and the on-rate (kon) was found to be 258000 M⁻¹ s⁻¹.

B9: H01Fv6 (antibody, human IgG1, kappa)
heavy: not shown
light: not shown
chain: DKTHTCPPCPAPELLGGPSVFLFPPKPKDTLMISRTPEVTCVVVDVSHEDPEVKFNWYVDGVEVHNAKTKPREEQYNSTYRVVSVLTVLHQDWLNGKEYKCKVSNKALPAPIEKTISKAKGQPREPQVCTLPPSREEMTKNQVSLSCAVKGFYPSDIAVEWESNGQPENNYKTTPPVLDSDGSFFLVSKLTVDKSRWQQGNVFSCSVMHEALHNRFTQKSLSLSPGK
notes: also called Fv-(Fc)2, VH Q105C, F126C / VL A43C, S121C
Consider B9, for which, in test [2], the Kd turned out to be 0.0487 nM, the off-rate (koff) was determined as 6.61e-06 s⁻¹ and the kon turned out to be 136000 M⁻¹ s⁻¹.
